According to US6576753B1, “DNA encoding human leukotriene C4 synthase” (The Brigham and Women's Hospital, Inc., priority 1994, dated 2003):
Positions count from the first letter of the chain named. Where two headings read alike, the source gives them in different places.

Legend:
LTC4 synthase [1] = molecular target: T1, LTC4 synthase (Homo sapiens, UniProt Q16873, Y93F); test: Enzyme kinetics of purified recombinant wild-type or mutant LTC4 synthase; assay type: biochemical
T1 construct: made in house; host or cells: COS-7 cells
T1 sequence (Q16873 1-150 Y93F): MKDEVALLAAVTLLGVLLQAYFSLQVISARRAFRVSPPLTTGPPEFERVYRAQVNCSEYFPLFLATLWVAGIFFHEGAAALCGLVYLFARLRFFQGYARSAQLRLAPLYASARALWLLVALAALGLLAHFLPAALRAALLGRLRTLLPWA
Description: (§1) PURIFICATION AND KINETIC ANALYSIS OF SELECTED EXPRESSED PROTEINS: Recombinant LTC4 synthases were purified by S-hexyl GSH agarose affinity chromatography (Lam et al., Eur. J. Biochem., 238:606, 1996). Solubilized microsomes were loaded onto a 2.5-cm×1.5-cm open bed of S-hexyl GSH resin equilibrated with 50 mM HEPES, 1 mM EDTA, 5 mM β-mercaptoethanol, 0.1% Triton X-102, 10% glycerol, pH 7.6 (Buffer A) at 4° C. The column was washed sequentially with 5 volumes each of buffer A/0.3 M NaCl/20 mM GSH/0.1% DOC, buffer A/2.5 mM S-hexyl GSH/2.5 mM S-octyl GSH/0.1% DOC, and buffer A/0.1% DOC; and the enzyme was eluted with 5 fractions of 1 volume each of 15 mM probenecid in buffer A containing 0.1% DOC. The enzyme was purified nearly to homogeneity as determined by the presence in silver stained SDS-PAGE gels of a predominant 18-kDa protein band with a minor 34-kDa band; only the 18-kDa band interacted with anti-LTC4 synthase antibody on immunoblot analysis. After sequential concentration and dilution with a Microsep 10K centrifugal concentrator (Filtron Technology Corp., Northborough, Mass.) to remove probenecid, the protein concentration was estimated by staining a SDS-PAGE gel of the purified enzyme and a standard amount of lysozyme resolved in the same gel with Coomassie blue dye and comparing their intensities.
(§2) To examine the enzyme kinetics of recombinant wild-type or mutant LTC4 synthase, 3-100 ng portions of purified enzyme were incubated in 200 μl of HEPES buffer, pH 7.6, containing 10 mM MgC'2 with either 20 μM LTA4-ME and various concentration of GSH or with 10 mM GSH and various concentrations of LTA4-ME for 2 min at room temperature. The reactions were terminated by the addition of 3 vol of methanol containing 200 ng PGB2. Samples were then analyzed for LTC4-ME by RP-HPLC.

LTC4 synthase [2] = test: as above; assay type: biochemical, human; conditions: purified recombinant enzyme
Description: as §1, §2

LTC4 synthase [3] = molecular target: T1, LTC4 synthase; test: Effect of pH on enzymatic conjugation by wild-type and mutant enzyme; assay type: biochemical; conditions: microsomal assay, 5-fold more Y93F
Description: The study the effect of pH on enzymatic conjugation by wild-type and mutant enzyme, 1-μl or 5-μl (Y93F) samples of solubilized COS cell microsomes were incubated with 10 μM LTA4-ME and 10 mM GSH in bis-Tris propane buffer containing 10 mM MgCl2 at various pH levels. The reactions were carried out at room temperature for 2 min and were stopped by the addition of 3 vol of methanol and 10 μl of acetic acid. Product generation was quantitated by RP-HPLC as described above.

LTC4 synthase [4] = test: Conjugation of LTA4-ME with GSH by solubilized microsomes of COS cells transfected with wild-type or mutant LTC4 synthase; conditions: for Function / Km: COS cell microsome; for conjugation function of transfected COS cell microsomes: compared to wild-type construct
Description: OF THE EXPRESSED PROTEINS: COS-7 cells were transfected with either wild-type LTC4 synthase cDNA or the mutated LTC4 synthase cDNA by DEAE-dextran transfection (Lam et al., Proc. Natl. Acad. Sci. USA., 91:7663, 1994). Three days after transfection, the cells were harvested by treatment with trypsin and suspended in microsomal buffer (50 mM HEPES buffer pH 7.9 containing 2 mM EDTA and 10 mM β-mercaptoethanol) at a concentration of 5×10^6 cells/ml. The cells were lysed by sonication with a Branson microtip sonicator (Danbury, Conn.) at a setting of 7. Cell lysates were centrifuged at 100,000×g for 60 min at 4° C., and the pellets (microsomes) were resuspended in microsomal buffer and were solubilized by the addition of 0.4% Triton X-102, 0.4% sodium deoxycholate (DOC), and 10% glycerol and stirring at 4° C. for 45 min.
The function of each mutant enzyme as well as the wild-type enzyme was first screened by the incubation of 1-10 μl of solubilized COS cell microsomes with 10 mM GSH and 20 μM LTA4-ME in 200 μl 50 mM HEPES buffer containing 10 mM MgCl2, pH 7.6. The reactions were carried out at room temperature for 10 min and stopped by the addition of 3 vol methanol containing 200 ng prostaglandin B2 (PGB2) as an internal standard. LTC4-ME levels in the samples were determined with high performance liquid chromatography (HPLC).
Reverse phase (RP)-HPLC was carried out with a model 126 dual pump system and model 167 scanning UV detector (Beckman Instruments) controlled by an Gateway 2000 P4D66 computer equipped with Beckman System Gold software. Samples were applied to a 5-μm 4.6×250-mm C18 Ultrasphere reverse phase column (Beckman Instruments) equilibrated with a solvent of methanol/acetonitrile/water/acetic acid (10:15:100:0.2, v/v), pH 6.0 (solvent A). Immediately after the sample was injected, the column was eluted at a flow rate of 1 ml/min with a programmed concave gradient (System Cold curve 6) to 20% solvent A and 80% solvent B (pure methanol) over 0.2 min with continuation isocratically for 5.8 min. Beginning at 6 min, solvent B was increased linearly to 100% over 0.2 min and was maintained at this level for 7 min more. The ultraviolet absorbance at 280 nm and the ultraviolet spectra were recorded simultaneously. The retention times for PGB2 and LTC4-ME were 7.4 and 8.9 min, respectively. LTC4-ME was quantitated by calculating the ratio of the peak area to the area of the internal standard PGB2.

[5] = Binding of mutant protein to S-hexyl GSH agarose column; conditions: eluted with probenecid
Description: as §1

LTC4 synthase [6] = molecular target: T2, LTC4 synthase (Homo sapiens, UniProt Q16873); test: Dose-response assay using MK886: conversion of LTA4-ME to LTC4-ME by lysates of transfected COS-7 cells; assay type: biochemical
T2 construct: expressed in transfected cells; host or cells: COS-7 cells (pcDNA3 clone from KG-1 library), cell lysate
T2 sequence (Q16873 1-150): T1 sequence (Q16873 1-150 Y93F) with F93Y
Description: After 2.8 min more, solvent B was increased linearly to 90% over 2 min and was maintained at this level for an additional 10 min. UV absorbance at 280 nm and the UV spectra were recorded simultaneously. The retention times for PGB2 and LTC4-ME were 8.5 and 10.1 min, respectively.
DOSE-RESPONSE ASSAY USING MK886: Cell lysates of the COS-7 cell transfectant containing SEQ ID NO.:1 were incubated with 20 micromolar LTA4-ME, 20 mM GSH, 5 mM MgCl2 in HEPES buffer (pH 7.6), in the presence of 0-10 micromolar MK886 for 10 minutes at room temperature. Reactions were stopped by addition of 2 volumes of methanol containing 200 ng PGB2. Samples were analyzed by RP-HPLC.

LTC4 synthase [7] = molecular target: T2, LTC4 synthase; conditions: high doses; Lam et al.; cited from earlier work

**Q.** With Y93F: LTC4 synthase point mutant as the molecule, how does the “reduction in Vmax” value (LTC4 synthase [1]; isolated recombinant enzyme, versus wild type) read?
**A.** Its value is “greater than 90%”.

**Q.** What about the “catalytic efficiency relative to wild-type enzyme” value (LTC4 synthase [1]; purified recombinant enzyme) of the same molecule?
**A.** The value was 1/260.

**Q.** And the “Vmax LTC4-ME” value (LTC4 synthase [2])?
**A.** The value was 1.4 µmol/min/mg.

**Q.** What about the Km (LTC4 synthase [2]; read-out: Km GSH) of the same molecule?
**A.** The Km was 9.9 mM.

**Q.** And the Km (LTC4 synthase [2]; read-out: Km LTA4-ME)?
**A.** Its Km is 0.0054 mM.

**Q.** And the “pH optimum of conjugation” value (LTC4 synthase [3])?
**A.** The value was “A shift in the optimum to a higher pH”.

**Q.** What about the Function (LTC4 synthase [4]) of the same molecule?
**A.** The Function was 5 % of WT.

**Q.** What about the “conjugation function of transfected COS cell microsomes” value (“conjugation function” for short) (LTC4 synthase [4]) of the same molecule?
**A.** The value was “associated with a reduction in function”.

**Q.** What about the Km (LTC4 synthase [4]; read-out: Km GSH) of the same molecule?
**A.** Its Km is 10 mM.

**Q.** What about the Km (LTC4 synthase [4]; read-out: Km LTA4-ME) of the same molecule?
**A.** The Km was 0.02 mM.

**Q.** Which “Vmax LTC4-ME” value (LTC4 synthase [2]) does the source give for R51T: LTC4 synthase point mutant here?
**A.** The value was “Inactive”.

**Q.** And the “binding to S-hexyl GSH agarose column” value [5]?
**A.** Its value is “bound to S-hexyl GSH”.

**Q.** And the Function (LTC4 synthase [4])?
**A.** The Function was 0 % of WT.

**Q.** And the “conjugation function” value (LTC4 synthase [4])?
**A.** The value was “do not show conjugation activity”.

**Q.** What about the “conjugation function” value (LTC4 synthase [4]; listed as Arg 51 to threonine) of the same molecule?
**A.** Its value is “abolished the functional activity”.

**Q.** What does the source list for `CC(C)c1ccc2c(c1)c(SC(C)(C)C)c(CC(C)(C)C(=O)O)n2Cc1ccc(Cl)cc1` [MK-886]?
**A.** IC50 (LTC4 synthase [6]; 20 μM LTA4-ME, COS cell lysates, read-out: IC50, inhibition of conversion of LTA4-ME to LTC4-ME): < 3000 nM; inhibition of enzyme activity (LTC4 synthase [6]; at 10 μM): more than 90%; IC50 (LTC4 synthase [6]; transfected COS cell lysates, read-out: ID50, inhibition of LTC4 synthase activity): ~3000 nM; inhibition of LTC4 synthase activity (LTC4 synthase [7]): could also inhibit LTC4 synthase activity when administered at high doses

**Q.** For `C[C@H](C#Cc1ccc(Oc2ccc(F)cc2)o1)N(O)C(N)=O` [A79175], which “effect on LTC4 synthase activity in COS cell lysates” value (LTC4 synthase [6]; at a concentration of 10 μM) is on record?
**A.** The value was “did not affect LTC4 synthase activity”.
